PMC8882007, “Syndapin-2 mediated transcytosis of amyloid-β across the blood–brain barrier” (Brain Communications, 2022)

Tests used:
Assay in all cases: proximity ligation; Duolink PLA between two endogenous proteins in polarized bEnd3 monolayers, fixed in 4% PFA and permeabilized with 0.1% Triton X-100; two primary antibodies overnight at 4°C; PLA signal normalized by the number of nuclei; also in shRNA control (scramble) and syndapin-2 knockdown cells, and after FAM-Aβ (1–40) or Aβ monomers, oligomers or fibrils for 15 min
[1] = biological target: Rab11 (mouse (endogenous in bEnd3)) (UniProt P62492)
[2] = biological target: Rab7 (mouse (endogenous in bEnd3)) (UniProt P51150)
[3] = biological target: Rab5 (mouse (endogenous in bEnd3)) (UniProt Q9CQD1)

Measured: PLA dots per cell (dots per cell)

Chain of syndapin-2 (Q9WVE8 whole entry): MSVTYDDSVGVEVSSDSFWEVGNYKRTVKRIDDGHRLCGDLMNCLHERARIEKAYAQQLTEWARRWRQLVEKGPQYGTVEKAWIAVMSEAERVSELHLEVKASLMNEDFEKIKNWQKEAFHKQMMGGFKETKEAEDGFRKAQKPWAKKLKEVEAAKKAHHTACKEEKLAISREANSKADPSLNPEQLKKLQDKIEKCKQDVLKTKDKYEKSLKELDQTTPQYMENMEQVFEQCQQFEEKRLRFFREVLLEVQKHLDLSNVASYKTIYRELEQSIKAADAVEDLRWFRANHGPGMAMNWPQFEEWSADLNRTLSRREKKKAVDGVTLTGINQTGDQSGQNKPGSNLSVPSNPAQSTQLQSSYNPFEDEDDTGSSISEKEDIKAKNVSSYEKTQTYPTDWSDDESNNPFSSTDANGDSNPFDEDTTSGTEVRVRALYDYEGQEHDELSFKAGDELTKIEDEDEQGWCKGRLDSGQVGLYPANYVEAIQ
Chain of Rab11 (mouse (endogenous in bEnd3)) (P62492 whole entry): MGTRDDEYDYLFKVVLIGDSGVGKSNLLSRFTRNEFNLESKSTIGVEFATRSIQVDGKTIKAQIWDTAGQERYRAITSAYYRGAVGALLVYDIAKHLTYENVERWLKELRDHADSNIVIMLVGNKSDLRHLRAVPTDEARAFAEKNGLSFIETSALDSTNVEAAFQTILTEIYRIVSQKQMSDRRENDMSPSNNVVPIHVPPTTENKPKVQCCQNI
Chain of Rab7 (mouse (endogenous in bEnd3)) (P51150 whole entry): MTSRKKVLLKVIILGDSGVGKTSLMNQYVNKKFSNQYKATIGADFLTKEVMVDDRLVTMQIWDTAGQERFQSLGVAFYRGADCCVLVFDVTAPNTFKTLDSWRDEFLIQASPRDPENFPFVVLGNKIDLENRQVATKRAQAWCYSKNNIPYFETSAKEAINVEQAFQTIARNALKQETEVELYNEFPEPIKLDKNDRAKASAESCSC
Chain of Rab5 (mouse (endogenous in bEnd3)) (Q9CQD1 whole entry): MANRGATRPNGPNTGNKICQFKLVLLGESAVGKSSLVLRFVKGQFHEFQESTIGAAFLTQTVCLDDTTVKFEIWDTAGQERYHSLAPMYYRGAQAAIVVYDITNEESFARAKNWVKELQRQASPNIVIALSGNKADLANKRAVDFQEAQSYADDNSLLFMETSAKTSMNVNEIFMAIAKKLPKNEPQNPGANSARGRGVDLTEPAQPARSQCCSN

syndapin-2 (from UniProt Q9WVE8 1-486) (natural protein)
< 20: [1] | [2] | [3]
